In PMC9482650, “Quantitative fragmentomics allow affinity mapping of interactomes” (Nature Communications, 2022):

Assays:
Assay in all cases: holdup assay
Parameters in all cases: key: below the threshold = too weak to quantify, mostly under pKd 3.1 to 4
Details in all cases: plain residues with an end cap or a label only (N-terminal biotin on a linker: ttds)
CNKSR3, Q6P9H4 = target: CNKSR3, Q6P9H4
GRIP1_1, Q9Y3R0 = target: T1, GRIP1_1, Q9Y3R0
T1 sequence (Q9Y3R0 48-146, limits assumed, looked up): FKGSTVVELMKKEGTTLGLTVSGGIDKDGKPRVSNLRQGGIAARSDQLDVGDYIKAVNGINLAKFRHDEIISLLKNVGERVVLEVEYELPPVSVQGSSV

Inadl_7, Q8NI35 = target: Inadl_7, Q8NI35
LNX2_4, Q8N448 = target: T2, LNX2_4, Q8N448
T2 sequence (Q8N448 595-690, limits assumed, looked up): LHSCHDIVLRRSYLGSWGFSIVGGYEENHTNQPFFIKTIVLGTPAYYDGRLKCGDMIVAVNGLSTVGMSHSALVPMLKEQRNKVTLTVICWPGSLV

MAGI1_3, Q96QZ7 = target: MAGI1_3, Q96QZ7
MAGI1_4, Q96QZ7 = target: MAGI1_4, Q96QZ7
MAGI3_3, Q5TCQ9 = target: MAGI3_3, Q5TCQ9
MAGI3_5, Q5TCQ9 = target: MAGI3_5, Q5TCQ9
MPDZ_11, O75970 = target: T3, MPDZ_11, O75970
T3 sequence (O75970 1720-1817, limits assumed, looked up): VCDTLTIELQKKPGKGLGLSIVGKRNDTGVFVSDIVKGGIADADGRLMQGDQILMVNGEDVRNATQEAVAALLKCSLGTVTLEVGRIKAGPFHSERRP

MPDZ_13, O75970 = target: T4, MPDZ_13, O75970
T4 sequence (O75970 1982-2070, limits assumed, looked up): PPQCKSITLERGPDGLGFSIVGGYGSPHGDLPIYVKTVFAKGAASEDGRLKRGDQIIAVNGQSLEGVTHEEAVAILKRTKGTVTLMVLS

PARD3B_3, Q8TEW8 = target: PARD3B_3, Q8TEW8
PARD3_1, Q8TEW0 = target: PARD3_1, Q8TEW0
PARD6B, Q9BYG5 = target: T5, PARD6B, Q9BYG5
T5 sequence (Q9BYG5 152-260, limits assumed, looked up): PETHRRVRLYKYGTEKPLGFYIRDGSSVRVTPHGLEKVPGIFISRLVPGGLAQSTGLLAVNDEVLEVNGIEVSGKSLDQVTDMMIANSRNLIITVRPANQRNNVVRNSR

PDZD2_4, O15018 = target: T6, PDZD2_4, O15018
T6 sequence (O15018 723-823, limits assumed, looked up): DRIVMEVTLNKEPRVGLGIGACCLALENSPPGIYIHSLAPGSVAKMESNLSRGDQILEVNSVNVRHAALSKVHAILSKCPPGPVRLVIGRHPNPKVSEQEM

PDZRN4_2, Q6ZMN7 = target: PDZRN4_2, Q6ZMN7
RIMS2, Q9UQ26 = target: RIMS2, Q9UQ26
SDCBP_1, O00560 = target: SDCBP_1, O00560
SHANK3, Q9BYB0 = target: T7, SHANK3, Q9BYB0
T7 sequence (Q9BYB0 641-750, limits assumed, looked up): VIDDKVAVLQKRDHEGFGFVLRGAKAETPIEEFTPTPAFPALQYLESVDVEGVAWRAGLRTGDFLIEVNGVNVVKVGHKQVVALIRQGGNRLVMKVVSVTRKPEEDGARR

SHROOM3, Q8TF72 = target: T8, SHROOM3, Q8TF72
T8 sequence (Q8TF72 20-120, limits assumed, looked up): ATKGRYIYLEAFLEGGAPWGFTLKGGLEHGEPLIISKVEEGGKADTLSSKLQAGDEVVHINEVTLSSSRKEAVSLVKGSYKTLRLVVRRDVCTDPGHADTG

SHROOM4, Q9ULL8 = target: T9, SHROOM4, Q9ULL8
T9 sequence (Q9ULL8 5-102, limits assumed, looked up): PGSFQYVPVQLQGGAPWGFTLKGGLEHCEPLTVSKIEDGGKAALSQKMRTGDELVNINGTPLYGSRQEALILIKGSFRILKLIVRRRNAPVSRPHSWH

SIPA1L3, O60292 = target: T10, SIPA1L3, O60292
T10 sequence (O60292 961-1052, limits assumed, looked up): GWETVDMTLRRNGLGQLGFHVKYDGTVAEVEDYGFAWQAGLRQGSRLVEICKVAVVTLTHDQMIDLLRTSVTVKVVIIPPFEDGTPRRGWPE

SNTB2, Q13425 = target: T11, SNTB2, Q13425
T11 sequence (Q13425 110-208, limits assumed, looked up): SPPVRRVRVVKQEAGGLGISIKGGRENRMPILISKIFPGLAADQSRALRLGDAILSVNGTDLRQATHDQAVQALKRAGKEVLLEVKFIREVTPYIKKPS

TJP3_2, O95049 = target: T12, TJP3_2, O95049
T12 sequence (O95049 190-282, limits assumed, looked up): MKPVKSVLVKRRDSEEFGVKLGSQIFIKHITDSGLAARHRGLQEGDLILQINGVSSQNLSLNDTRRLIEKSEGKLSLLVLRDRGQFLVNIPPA

USH1C_2, Q9Y6N9 = target: T13, USH1C_2, Q9Y6N9
T13 sequence (Q9Y6N9 206-303, limits assumed, looked up): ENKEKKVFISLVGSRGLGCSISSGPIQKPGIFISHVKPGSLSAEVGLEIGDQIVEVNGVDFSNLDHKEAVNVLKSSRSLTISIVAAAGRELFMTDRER

Measured: pKd

Sequence of Inadl_7, Q8NI35 (Q8NI35 1219-1332): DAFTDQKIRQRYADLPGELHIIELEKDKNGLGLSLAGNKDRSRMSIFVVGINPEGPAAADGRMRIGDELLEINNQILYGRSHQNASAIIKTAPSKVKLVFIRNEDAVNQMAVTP
Sequence of MAGI3_3, Q5TCQ9 (Q5TCQ9 572-655): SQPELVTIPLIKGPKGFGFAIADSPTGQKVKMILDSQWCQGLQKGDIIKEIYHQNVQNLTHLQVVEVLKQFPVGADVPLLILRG
Sequence of PDZRN4_2, Q6ZMN7 (Q6ZMN7 389-498): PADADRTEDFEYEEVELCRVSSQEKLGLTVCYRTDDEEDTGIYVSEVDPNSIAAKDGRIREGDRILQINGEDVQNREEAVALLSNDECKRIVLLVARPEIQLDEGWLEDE
Sequence of MAGI1_4, Q96QZ7 (Q96QZ7 other isoform, or with tags, fused parts or gaps): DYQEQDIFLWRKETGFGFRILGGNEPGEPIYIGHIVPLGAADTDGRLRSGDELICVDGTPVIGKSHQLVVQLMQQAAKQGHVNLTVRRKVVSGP
Sequence of RIMS2, Q9UQ26 (Q9UQ26 637-758): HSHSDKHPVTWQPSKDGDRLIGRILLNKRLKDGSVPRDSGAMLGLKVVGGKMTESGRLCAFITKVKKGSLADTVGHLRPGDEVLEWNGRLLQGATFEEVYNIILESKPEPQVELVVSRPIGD
Sequence of MAGI3_5, Q5TCQ9 (Q5TCQ9 847-941): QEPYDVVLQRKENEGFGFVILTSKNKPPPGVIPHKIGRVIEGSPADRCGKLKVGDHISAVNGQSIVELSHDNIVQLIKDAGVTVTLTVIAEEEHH
Sequence of CNKSR3, Q6P9H4 (Q6P9H4 203-303): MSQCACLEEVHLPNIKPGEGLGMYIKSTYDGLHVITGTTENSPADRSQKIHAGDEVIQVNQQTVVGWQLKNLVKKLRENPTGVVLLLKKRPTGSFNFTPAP
Sequence of MAGI1_3, Q96QZ7 (Q96QZ7 638-725): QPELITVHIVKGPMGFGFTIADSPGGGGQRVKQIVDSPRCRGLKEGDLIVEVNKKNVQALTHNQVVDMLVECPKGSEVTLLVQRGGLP
Sequence of PARD3_1, Q8TEW0 (Q8TEW0 264-372): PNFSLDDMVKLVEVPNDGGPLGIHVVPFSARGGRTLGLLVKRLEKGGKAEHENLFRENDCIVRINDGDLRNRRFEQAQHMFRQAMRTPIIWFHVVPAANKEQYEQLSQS
Sequence of PARD3B_3, Q8TEW8 (Q8TEW8 490-594): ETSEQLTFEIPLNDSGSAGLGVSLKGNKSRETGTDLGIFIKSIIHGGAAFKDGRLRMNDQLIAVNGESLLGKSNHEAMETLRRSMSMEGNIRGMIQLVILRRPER
Sequence of SDCBP_1, O00560 (O00560 111-198): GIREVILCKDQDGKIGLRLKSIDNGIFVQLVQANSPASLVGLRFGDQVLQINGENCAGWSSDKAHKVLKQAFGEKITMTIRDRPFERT

CLDTSRETDL [KCNA5, P22460]
4.91: SNTB2, Q13425
below the threshold: all other assays above

QPGTPTRTAV [MAP2K2, P36507]
4.05: CNKSR3, Q6P9H4
below the threshold: all other assays above

RRVRKLPSTTL [RPS6KA1, Q15418]
3.58: MPDZ_11, O75970
4.14: SHANK3, Q9BYB0
not listed: SNTB2, Q13425
below the threshold: all other assays above

DEDQHTQITKV [PTEN, P60484]
4.25: PARD6B, Q9BYG5
4.5: MAGI1_3, Q96QZ7
3.65: Inadl_7, Q8NI35
not listed: MAGI1_4, Q96QZ7 | MPDZ_13, O75970 | RIMS2, Q9UQ26 | SHANK3, Q9BYB0 | SHROOM3, Q8TF72 | SIPA1L3, O60292 | USH1C_2, Q9Y6N9
below the threshold: all other assays above

SEKHFRETEV [HTLV1-TAX1, P03409]
4.77: MPDZ_13, O75970
4.25: MPDZ_11, O75970
4.36: MAGI3_3, Q5TCQ9
4.28: MAGI1_4, Q96QZ7
4.86: MAGI3_5, Q5TCQ9
4.75: MAGI1_3, Q96QZ7
not listed: SNTB2, Q13425
below the threshold: all other assays above

TGDTLEKFVEGL [CBP, Q92793]
3.86: SHROOM4, Q9ULL8
4.58: PARD6B, Q9BYG5
3.95: TJP3_2, O95049
not listed: MAGI1_4, Q96QZ7 | RIMS2, Q9UQ26 | SIPA1L3, O60292 | USH1C_2, Q9Y6N9
below the threshold: all other assays above
